Measurements: the Human Domainome abundance scans (Beltran et al. 2025)
± gives the uncertainty stated by the source.

B1: Tumor protein 63, residues 545 to 610; numbered along this chain, Q9H3D4 (parent)
chain: TDCSIVSFLARLGCSSCLDYFTTQGLTTIYQIEHYSMDDLASLKIPEQFRHAIWKGILDHRQLHEF

Variants of: B1
Assay: abundance fitness (aPCA) (normalised: wild type 0, dead -1); higher = more abundant; growth selection in yeast, the domain comes from the species named
Settings: Homo sapiens

Abundance fitness: each site, then its substitutions
Q62: D -0.03 ± 0.033 | S -0.025 ± 0.025 | Y -0.083 ± 0.042 | H -0.011 ± 0.031 | I -0.151 ± 0.042 | K -0.021 ± 0.032 | W -0.144 ± 0.034 | A -0.011 ± 0.025 | R 0.006 ± 0.02
H60: Y -0.014 ± 0.037 | V 0 ± 0.028 | C -0.004 ± 0.037 | M -0.011 ± 0.025 | F -0.003 ± 0.045 | G -0.092 ± 0.044 | T -0.027 ± 0.032 | D -0.13 ± 0.04 | P -0.38 ± 0.042 | Q -0.02 ± 0.059 | I -0.045 ± 0.042 | K -0.064 ± 0.03 | W -0.017 ± 0.038 | E -0.077 ± 0.05 | S -0.077 ± 0.027 | L -0.018 ± 0.023 | N -0.015 ± 0.035 | R 0.012 ± 0.026 | A -0.019 ± 0.037
L58: C 0.01 ± 0.041 | T 0.002 ± 0.027 | M -0.06 ± 0.043 | V -0.006 ± 0.03 | K -0.001 ± 0.043 | I 0 ± 0.057 | A -0.01 ± 0.022 | N -0.039 ± 0.074 | Y 0.026 ± 0.045 | F -0.034 ± 0.029 | P -0.272 ± 0.028 | G 0.002 ± 0.027 | S -0.007 ± 0.022 | E -0.015 ± 0.03 | R 0.006 ± 0.024
R61: P -0.022 ± 0.039 | C -0.073 ± 0.04 | A -0.033 ± 0.029 | V -0.067 ± 0.026 | E -0.047 ± 0.035 | F -0.037 ± 0.033 | W -0.105 ± 0.032 | N -0.05 ± 0.049 | M -0.077 ± 0.028 | D -0.121 ± 0.075 | S -0.039 ± 0.028 | I -0.062 ± 0.041 | H -0.1 ± 0.054 | K 0.058 ± 0.045 | T -0.055 ± 0.031
H64: T 0.011 ± 0.035 | N -0.007 ± 0.041 | S 0.016 ± 0.025 | P -0.02 ± 0.031 | E 0.034 ± 0.025 | V -0.019 ± 0.019 | Q 0.029 ± 0.048 | G -0.035 ± 0.021 | W -0.075 ± 0.04 | K -0.018 ± 0.043 | A -0.002 ± 0.021 | F -0.064 ± 0.031 | D -0.028 ± 0.039 | R -0.019 ± 0.025 | I -0.061 ± 0.038
K55: R -0.059 ± 0.02 | S -0.057 ± 0.026 | E -0.018 ± 0.046 | T -0.087 ± 0.045 | C -0.041 ± 0.035 | G -0.057 ± 0.022 | A -0.074 ± 0.027 | L -0.06 ± 0.025 | H -0.106 ± 0.082 | W -0.192 ± 0.032 | M -0.048 ± 0.035 | N -0.038 ± 0.029 | Q -0.038 ± 0.071 | D -0.072 ± 0.034 | P -0.792 ± 0.088 | V -0.071 ± 0.032 | F -0.212 ± 0.049
W54: S -0.055 ± 0.097 | V -0.078 ± 0.19 | H -0.301 ± 0.23 | T -0.102 ± 0.26 | L 0.031 ± 0.067 | R -0.133 ± 0.068 | A -0.065 ± 0.086 | G -0.248 ± 0.086 | I -0.028 ± 0.14 | N -0.03 ± 0.12 | C -0.363 ± 0.16
F66: S -0.019 ± 0.046 | H 0.027 ± 0.056 | A 0.05 ± 0.12 | L -0.022 ± 0.072 | C 0.033 ± 0.2 | P 0.086 ± 0.063 | Y 0.044 ± 0.1 | M 0.028 ± 0.085 | G -0.214 ± 0.068 | R -0.013 ± 0.068 | I -0.011 ± 0.051 | V 0.071 ± 0.051 | E -0.678 ± 0.22 | D -0.119 ± 0.46
R50: T -0.056 ± 0.028 | P -0.848 ± 0.072 | L -0.036 ± 0.022 | Y -0.174 ± 0.036 | M -0.002 ± 0.029 | W -0.128 ± 0.027 | Q -0.067 ± 0.035 | K -0.067 ± 0.048 | E -0.159 ± 0.034 | H -0.03 ± 0.084 | S -0.102 ± 0.025 | D -0.712 ± 0.074 | C -0.052 ± 0.043 | F -0.149 ± 0.07 | A -0.092 ± 0.027 | G -0.274 ± 0.023
G56: S -0.142 ± 0.022 | W -0.811 ± 0.063 | Y -0.505 ± 0.036 | I -0.831 ± 0.12 | E -0.239 ± 0.04 | L -0.77 ± 0.051 | N -0.361 ± 0.035 | D -0.446 ± 0.038 | A -0.075 ± 0.03 | M -0.546 ± 0.046 | R -0.452 ± 0.02 | T -0.541 ± 0.042 | F -0.649 ± 0.061 | C -0.472 ± 0.047 | H -0.363 ± 0.061 | V -0.676 ± 0.041 | K -0.447 ± 0.075 | Q -0.307 ± 0.043
P46: Y -1.12 ± 0.47
D59: F -0.09 ± 0.031 | I -0.084 ± 0.034 | M -0.066 ± 0.034 | V -0.034 ± 0.022 | C -0.058 ± 0.037 | E -0.006 ± 0.027 | Q -0.027 ± 0.045 | K -0.06 ± 0.052 | L -0.074 ± 0.023 | N -0.079 ± 0.04 | R -0.087 ± 0.024 | A -0.009 ± 0.022 | H -0.024 ± 0.055 | Y -0.054 ± 0.042 | G -0.02 ± 0.022 | T -0.111 ± 0.04 | W -0.161 ± 0.027
